Data taken from patent US20240269310A1 (GENERAL HOSPITAL, published 2024).

Columns and labels:
[1] = biological target: T1, CDH11 as expressed by human breast cancer cells (MDA-MB-231 and breast cancer CTC lines Brx-142, Brx-330, … (human, UniProt P55287 54-796)); test: western blot of whole cell extracts of MDA-MB-231 and CTC lines; shRNA knockdown as specificity control
T1 construct: whole, on cells; On cells in immunofluorescence and immunohistochemistry; In whole cell extracts (RIPA, SDS gel) in the western blots; also called Cadherin 11; OB-cadherin
T1 sequence (looked up): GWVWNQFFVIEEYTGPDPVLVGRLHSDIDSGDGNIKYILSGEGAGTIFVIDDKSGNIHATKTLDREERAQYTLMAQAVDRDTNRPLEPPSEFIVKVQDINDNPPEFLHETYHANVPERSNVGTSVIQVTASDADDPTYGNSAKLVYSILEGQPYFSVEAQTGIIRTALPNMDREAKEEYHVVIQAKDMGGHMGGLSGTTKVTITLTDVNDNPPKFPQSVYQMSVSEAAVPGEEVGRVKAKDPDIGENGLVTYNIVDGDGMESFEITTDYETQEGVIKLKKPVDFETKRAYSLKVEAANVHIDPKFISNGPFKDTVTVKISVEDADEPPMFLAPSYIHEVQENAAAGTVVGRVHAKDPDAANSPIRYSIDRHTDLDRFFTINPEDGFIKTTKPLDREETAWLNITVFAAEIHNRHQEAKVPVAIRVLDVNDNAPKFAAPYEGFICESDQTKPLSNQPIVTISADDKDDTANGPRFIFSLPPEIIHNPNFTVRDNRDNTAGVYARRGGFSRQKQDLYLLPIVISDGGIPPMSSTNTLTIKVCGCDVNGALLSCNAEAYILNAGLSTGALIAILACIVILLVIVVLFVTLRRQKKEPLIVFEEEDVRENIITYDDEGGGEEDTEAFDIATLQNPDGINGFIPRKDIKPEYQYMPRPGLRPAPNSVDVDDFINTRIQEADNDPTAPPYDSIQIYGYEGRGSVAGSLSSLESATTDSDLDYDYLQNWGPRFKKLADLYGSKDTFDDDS
Description: FIG. 1 is the RNA expression levels of cell adhesion molecules in the CTC lines Brx-82, Brx-142, Brx-394 AVG, Brx-189, Brx-390, Brx-121, Brx-292, Brx-319, Brx-250, Brx-140, or Brx-401 from breast cancer patients. The cell adhesion molecule CDH11 was expressed at the RNA level in multiple breast CTC cell lines (FIG. 1, black outline).
(§1) Western blot analysis was performed on whole cell extracts prepared with RIPA buffer. Proteins were separated on 4-15% polyacrylamide gradient-SDS gels (Bio-Rad), and transferred onto nitrocellulose membrane (Invitrogen). Immunoblots were visualized with Enhanced Chemiluminescence (Perkin-Elmer). Primary antibodies were used against E-cadherin (1:5000; BDBiosciences Clone 36), N-cadherin (1:500; EBiosciences Clone 8C11) and GAPDH (1:2000; Millipore ABS16). 23C6 was also used as a primary antibody for western blot analysis (1:250). Recombinant protein obtained as follows: human CDH1 (R&D Systems 8505-EC-050), murine CDH1 (R&D Systems 8875-EC-050), human CDH2 (R&D Systems 1388NC050) and human CDH11 (Elabscience #PKSH032136).

[2] = biological target: T2, CDH1 (E-cadherin) as expressed by PDAC9 cells (human, UniProt P12830 155-882); test: flow cytometry of fixed PDAC9 cells after siRNA knockdown
T2 construct: whole, on cells; On fixed cells in flow cytometry; In whole cell lysates in the western blot; PDAC9 is described as patient-derived and is used among the human xenograft models
T2 sequence (looked up): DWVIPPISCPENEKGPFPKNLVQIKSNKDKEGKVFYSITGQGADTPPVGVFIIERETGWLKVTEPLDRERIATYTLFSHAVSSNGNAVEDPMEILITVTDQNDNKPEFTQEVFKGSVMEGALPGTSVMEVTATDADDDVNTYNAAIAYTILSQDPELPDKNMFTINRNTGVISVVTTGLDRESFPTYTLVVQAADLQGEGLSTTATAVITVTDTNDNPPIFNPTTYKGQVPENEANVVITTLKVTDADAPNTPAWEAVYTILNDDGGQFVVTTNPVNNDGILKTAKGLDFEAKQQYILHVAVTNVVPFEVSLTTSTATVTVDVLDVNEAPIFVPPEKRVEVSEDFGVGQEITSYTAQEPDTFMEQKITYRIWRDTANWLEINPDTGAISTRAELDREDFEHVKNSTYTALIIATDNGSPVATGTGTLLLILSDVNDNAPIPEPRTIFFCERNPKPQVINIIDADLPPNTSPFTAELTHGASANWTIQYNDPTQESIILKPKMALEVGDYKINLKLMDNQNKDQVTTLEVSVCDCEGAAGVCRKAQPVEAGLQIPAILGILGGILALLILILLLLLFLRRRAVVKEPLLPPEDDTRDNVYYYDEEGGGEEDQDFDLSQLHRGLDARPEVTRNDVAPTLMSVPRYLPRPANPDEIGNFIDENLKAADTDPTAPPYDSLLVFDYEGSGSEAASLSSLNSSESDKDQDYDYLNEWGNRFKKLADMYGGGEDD
Description: Cell lines were routinely checked for mycoplasma (MycoAlert, Lonza), and were obtained from ATCC. […] PDAC9 were grown as previously described (Porter et al., Proc Natl Acad Sci USA, (2019)). Viability assays were performed at 48 hours after treatment with varying concentration of the 23C6 antibody or PBS control. Viability was determined using Cell Titer Glo reagent (Promega). Proliferation assays were performed by treating MDA-MB-231 cells with a single dose of 23C6 antibody or PBS control and timepoints as indicated, where the relative cell number was determined with the Cell TiterGlo reagent. For migration assays, the MDA-MB-231 cells were harvested with trypsin, and the cells suspended in serum free media. […] The cell suspensions were treated with 23C6 or control, and after 48 hours, the number of cells migrating through the membrane was determined by crystal violet staining and microscopic imaging with automated counting of individual cells using Image J. For siRNA knockdown, ONTARGETplus siRNA smartpools (Horizon Discovery) were obtained and transfected using Lipofectamine RNAiMax reagent (Invitrogen) and the cells harvested for analysis after 5 days. For flow cytometry, in brief the cells were fixed with 4% PFA, blocked with 5% BSA in PBS and incubated with the 23C6 antibody at 1:500 followed by anti-mouse IgG-AlexaFlour 555 and then analyzed on BD Fortessa machine.

[3] = biological target: T3, recombinant human CDH1 (R&D Systems 8505-EC-050) (human, UniProt P12830 155-707); test: western blot of recombinant purified protein
T3 construct: Bought protein; also called hCDH1; E-cadherin
T3 sequence (looked up): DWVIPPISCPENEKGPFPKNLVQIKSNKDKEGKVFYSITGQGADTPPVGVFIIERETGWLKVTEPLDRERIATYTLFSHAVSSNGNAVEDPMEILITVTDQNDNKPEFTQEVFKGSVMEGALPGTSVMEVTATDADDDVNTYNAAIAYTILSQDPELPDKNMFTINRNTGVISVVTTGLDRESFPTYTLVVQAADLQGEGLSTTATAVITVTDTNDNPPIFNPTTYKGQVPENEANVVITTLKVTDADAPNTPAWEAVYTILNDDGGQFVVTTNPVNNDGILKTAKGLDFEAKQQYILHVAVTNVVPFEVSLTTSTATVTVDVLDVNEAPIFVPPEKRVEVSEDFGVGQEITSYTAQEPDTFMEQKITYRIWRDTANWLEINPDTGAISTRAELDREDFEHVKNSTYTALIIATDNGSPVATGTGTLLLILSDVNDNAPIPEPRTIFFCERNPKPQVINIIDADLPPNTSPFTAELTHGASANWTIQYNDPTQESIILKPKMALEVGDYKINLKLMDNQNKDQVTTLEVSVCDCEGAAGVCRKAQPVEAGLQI
Description: as §1

[4] = biological target: T4, recombinant murine CDH1 (R&D Systems 8875-EC-050) (murine, UniProt P09803 157-709); test: western blot of recombinant purified protein
T4 construct: Bought protein; also called mCDH1; recombinant murine E-cadherin protein
T4 sequence (looked up): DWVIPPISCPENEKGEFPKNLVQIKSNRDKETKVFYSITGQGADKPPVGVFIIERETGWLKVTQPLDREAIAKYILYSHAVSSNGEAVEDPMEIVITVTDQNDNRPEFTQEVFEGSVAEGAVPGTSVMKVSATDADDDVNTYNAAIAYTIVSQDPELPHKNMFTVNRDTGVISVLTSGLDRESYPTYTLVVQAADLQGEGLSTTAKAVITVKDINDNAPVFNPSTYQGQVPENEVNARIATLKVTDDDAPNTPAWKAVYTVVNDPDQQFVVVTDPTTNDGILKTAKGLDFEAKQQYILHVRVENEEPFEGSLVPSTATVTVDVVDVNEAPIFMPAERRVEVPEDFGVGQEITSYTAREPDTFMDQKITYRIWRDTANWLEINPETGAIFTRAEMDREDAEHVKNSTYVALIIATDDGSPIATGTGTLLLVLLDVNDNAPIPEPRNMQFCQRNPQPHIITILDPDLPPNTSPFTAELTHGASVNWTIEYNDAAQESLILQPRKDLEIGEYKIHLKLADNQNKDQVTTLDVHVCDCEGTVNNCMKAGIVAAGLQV
Description: as §1

- binding result [1]: binds
- binding result [2]: binds
- binding result [3]: binds
- binding result [4]: binds
B1: anti-CDH11 monoclonal antibody clone 23C6 (antibody, V domains shown)
VH: EFQLQQSGPELVKPGASVKISCKASGYSFTDYNMNWVKQSNGKSLEWIGAINPNYGTTSYNQKFKGKATLTVDQSSSTAYMQLNSLTSEDSAVYYCTRLYYGSRYFDVWGTGTTVTVSS
VL: QIVVTQSPAIMSASLGERVTMTCTASSSVSSSYLHWYQQKPGSSPKLWIYSTSNLASGVPARFSGSGSGTSYSLTISSMEAEDVATYYCHQYHRSPPTFGGGAKLEIK
notes: also called 23C6 antibody; 23C6 anti-CDH11 antibody
